The results in this text go back to paper PMC6044281, “Cooperative Domain Formation by Homologous Motifs in HOIL-1L and SHARPIN Plays A Crucial Role in LUBAC Stabilization” (Cell reports, 2018).

B1: mSHARPIN_(163–301) [mouse] / GST-mHOIP_(466–630) [mouse] (parent)
chain 1: SSGNFKKEELATRLSQAIAGGDEKAAAQVAAVLAQHHVALNVQLMEAWFPPGPIRLQVTVEDATSVLSSSSSAHVSLKIHPHCSIAALQDQVFSEFGFPPAVQRWVIGRCLCMPERSLASYGVSQDGDPAFLYLLSAPR
chain 2: SCGDPEKQRQDKMRKEGLQLVSMIQEGETAGASPEEVFSALQYSGTEVPLQWLRSELSYVLEMVAELAGQQDPELGAFSCQEARKAWLDRHGNLDEAVEECVRARRRKVHELQSLGFGPKEGSLQALFQHGGDVARALTELQRQRLEPFHQRLWDRDPEPTPCWD

In the assay the parent is B1. The assay is described as follows: SPR. The note with it: with GST-mHOIP_(466–630) [mouse]; response read at end of injection (about 185 s); GST-mHOIP D-UBA WT immobilized with anti-GST antibody; parent: 20; read off a plot.
Take chain 1 SSGNFKKEELATRASQAAAGGDEKAAAQVAAVLAQHHVALNVQLMEAWFPPGPIRLQVTVEDATSVLSSSSSAHVSLKIHPHCSIAALQDQVFSEFGFPPAVQRWVIGRCLCMPERSLASYGVSQDGDPAFLYLLSAPR [chain 1 L14A I18A]: the response is -20 RU.
